From US20220332804A1 (CSL INNOVATION, published 2022)
Substitutions are numbered along the chain they refer to.

What was measured:
Assay in all cases: SPR, KD relative to WT C2;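 note: biacore SPR at 37 °C, anti-C2 mAbs captured on anti-human IgG chips with alanine or serine point mutants of C2 as analyte, KD from 1:1 fit compared with wild-type C2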
human C2 V465A = target: T1, human C2 V465A (human, UniProt P06681 21-752)
T1 sequence: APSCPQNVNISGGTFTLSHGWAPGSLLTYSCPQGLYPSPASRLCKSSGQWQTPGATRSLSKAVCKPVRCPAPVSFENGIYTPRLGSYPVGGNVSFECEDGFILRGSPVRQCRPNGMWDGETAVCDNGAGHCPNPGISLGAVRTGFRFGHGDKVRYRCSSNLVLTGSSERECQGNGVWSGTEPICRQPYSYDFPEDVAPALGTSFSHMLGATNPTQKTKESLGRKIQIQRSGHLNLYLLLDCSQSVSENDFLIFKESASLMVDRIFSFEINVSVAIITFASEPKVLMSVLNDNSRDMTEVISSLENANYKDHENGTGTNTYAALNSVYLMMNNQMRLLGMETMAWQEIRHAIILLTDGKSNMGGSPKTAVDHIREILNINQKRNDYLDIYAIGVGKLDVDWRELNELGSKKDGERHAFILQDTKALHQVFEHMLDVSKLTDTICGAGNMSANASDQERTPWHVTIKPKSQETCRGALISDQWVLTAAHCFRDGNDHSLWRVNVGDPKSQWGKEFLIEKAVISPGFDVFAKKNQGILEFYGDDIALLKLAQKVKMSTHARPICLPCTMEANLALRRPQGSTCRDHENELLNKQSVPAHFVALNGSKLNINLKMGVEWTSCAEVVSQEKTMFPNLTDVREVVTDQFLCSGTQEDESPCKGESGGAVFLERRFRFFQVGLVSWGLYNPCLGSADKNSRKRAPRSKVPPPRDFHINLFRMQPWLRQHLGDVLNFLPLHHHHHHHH

human C2 S456A = target: T2, human C2 S456A (human, UniProt P06681 21-752)
T2 sequence: T1 sequence with S436A, A445V

[1] = target: T3, human complement C2 (wild type) (human, UniProt P06681 21-752)
T3 construct: Full-length human C2 (NP_000054) with C-terminal 8x His tag, secreted from Expi293F cells and purified from the supernatant; also called WT; huC2
T3 sequence: T1 sequence with A445V

B1: RF16-242 (antibody, human IgG4 S228P, lambda, V domains shown)
VH: EVQLLQSGAEVKKPGESLKISCKGSGYSFTSYWIGWVRQMPGKGLEWMGIIYPGDSDTRYSPSFQGQVTISADKSISTAYLQWSSLKASDTAMYYCARRGHYGDYFDYWGQGTLVTVSS
VL: SYELTQPPSVSVSPGQTARITCSGDALPKKYAYWYHQKSGQAPVLVIYEDRRRPSEIPERFSGSSSGTMATLTITGAQVEDEGVYFCYSRDRAGNQRVFGGGTQLTVLG
notes: pH-dependent anti-C2 antibody from a phage display library
Fold diff (human C2 V465A): 2 fold
Fold diff (human C2 S456A): 9 fold
Fold diff [1]: 1 fold
